The record followed here is paper PMC8149785.

In one experiment the target is human C3b (human) (UniProt P01024). In words: SPR; C3b amine coupled to a C1 chip (233 RU murine, 258 RU human); FH flowed over, two-fold dilution series from 2 uM to 6 nM; BIAcore T200, 25°C, HBSP+ (10 mM HEPES, 150 mM NaCl, 0.05% P20); equilibrium data, 1:1 binding model.
A further experiment deals with mouse C3b (mouse) (UniProt P01027). The experiment is described as above.

On to “recombinant murine factor H (from UniProt P06909 19-1234) (natural protein)”, for which the figures for the dissociation constant (Kd) in the experiment with human C3b (human) and with mouse C3b (mouse) were 1600 nM and 1200 nM, respectively.
